Measurements: publication PMC2923189, “An Oligopeptide Transporter of Mycobacterium tuberculosis Regulates Cytokine Release and Apoptosis of Infected Macrophages” (PLoS ONE, 2010)

Key:
Assay in all cases: radioligand binding
[1] = biological target: OppAMTB mutant F496D (Mycobacterium tuberculosis) (UniProt P9WGU5)
[2] = biological target: OppAMTB mutant N110A (Mycobacterium tuberculosis) (UniProt P9WGU5)
[3] = biological target: OppAMTB mutant N230G (Mycobacterium tuberculosis) (UniProt P9WGU5)
[4] = biological target: OppAMTB mutant G109S (Mycobacterium tuberculosis) (UniProt P9WGU5)
[5] = biological target: OppAMTB mutant D494N (Mycobacterium tuberculosis) (UniProt P9WGU5)

Measured: loss of binding activity against wild type

bradykinin (nonapeptide)
> 50%: all assays above

glutathione (tripeptide)
> 50%: all assays above
